Changes are numbered by the printed parent chain. Numbered stars: 1 amine (or outer) side, 2 acyl side, 3 side chain; on linkers, the order of the positions; unused ones are H or OH. Square brackets hold non-standard residues; d marks the D form. Side chains are listed from the residue outwards. Ends that are not written are not given here. * marks the point of attachment. C20 diacid = O=C(O)CCCCCCCCCCCCCCCCCCC(=O)*; γGlu = O=C(O)[C@H](CCC(=O)[*:2])N[*:1]; αMeL = CC(C)C[C@](C)(N)C(=O)O; αMeK = C[C@](N)(CCCCN)C(=O)O; AEEA = NCCOCCOCC(=O)O; Aib = CC(C)(N)C(=O)O
B1: Example 21 (peptide)
peptide: Y[Aib]EGTFTSDYSI[αMeL]LDEK([AEEA-AEEA-γGlu-C20 diacid])AQ[αMeK]AFIEYLLEGGPSSGAPPPS-NH2
modifications: N-terminus assumed
SMILES: CC[C@H](C)[C@H](NC(=O)[C@H](Cc1ccccc1)NC(=O)[C@H](C)NC(=O)[C@](C)(CCCCN)NC(=O)[C@H](CCC(N)=O)NC(=O)[C@H](C)NC(=O)[C@H](CCCCNC(=O)COCCOCCNC(=O)COCCOCCNC(=O)CC[C@H](NC(=O)CCCCCCCCCCCCCCCCCCC(=O)O)C(=O)O)NC(=O)[C@H](CCC(=O)O)NC(=O)[C@H](CC(=O)O)NC(=O)[C@H](CC(C)C)NC(=O)[C@](C)(CC(C)C)NC(=O)[C@@H](NC(=O)[C@H](CO)NC(=O)[C@H](Cc1ccc(O)cc1)NC(=O)[C@H](CC(=O)O)NC(=O)[C@H](CO)NC(=O)[C@@H](NC(=O)[C@H](Cc1ccccc1)NC(=O)[C@@H](NC(=O)CNC(=O)[C@H](CCC(=O)O)NC(=O)C(C)(C)NC(=O)[C@@H](N)Cc1ccc(O)cc1)[C@@H](C)O)[C@@H](C)O)[C@@H](C)CC)C(=O)N[C@@H](CCC(=O)O)C(=O)N[C@@H](Cc1ccc(O)cc1)C(=O)N[C@@H](CC(C)C)C(=O)N[C@@H](CC(C)C)C(=O)N[C@@H](CCC(=O)O)C(=O)NCC(=O)NCC(=O)N1CCC[C@H]1C(=O)N[C@@H](CO)C(=O)N[C@@H](CO)C(=O)NCC(=O)N[C@@H](C)C(=O)N1CCC[C@H]1C(=O)N1CCC[C@H]1C(=O)N1CCC[C@H]1C(=O)N[C@@H](CO)C(N)=O
B2: Example 138 (peptide)
peptide: YXEGTXTSDYSIXLDKKAQXSFIEYLIEGGPSSGAPPPS
modifications: Aib2; αMeF6; αMeL13; K17((2-[2-(2-Amino-ethoxy)-ethoxy]-acetyl)2-(γ-Glu)-CO-(CH2)18-CO2H); Aib20; C-terminal NH2
B3: Example 20 (peptide)
peptide: B2 peptide with X6F, S21A
modifications: Aib2; αMeL13; K17((2-[2-(2-Amino-ethoxy)-ethoxy]-acetyl)2-(γ-Glu)-CO-(CH2)18-CO2H); Aib20; C-terminal NH2
B4: Example 128 (peptide)
peptide: B2 peptide with Y10H, X13L, S21A
modifications: Aib2; αMeF6; K17((2-[2-(2-Amino-ethoxy)-ethoxy]-acetyl)2-(γ-Glu)-CO-(CH2)18-CO2H); Aib20; C-terminal NH2
B5: Example 126 (peptide)
peptide: B2 peptide with S21A, G29A
modifications: Aib2; αMeF6; αMeL13; K17((2-[2-(2-Amino-ethoxy)-ethoxy]-acetyl)2-(γ-Glu)-CO-(CH2)18-CO2H); Aib20; C-terminal NH2
B6: Example 119 (peptide)
peptide: B2 peptide with Y1F, K16E, S21A
modifications: Aib2; αMeF6; αMeL13; K17((2-[2-(2-Amino-ethoxy)-ethoxy]-acetyl)2-(γ-Glu)-CO-(CH2)18-CO2H); Aib20; C-terminal NH2
B7: Example 129 (peptide)
peptide: B2 peptide with Y10L, X13L, S21A
modifications: Aib2; αMeF6; K17((2-[2-(2-Amino-ethoxy)-ethoxy]-acetyl)2-(γ-Glu)-CO-(CH2)18-CO2H); Aib20; C-terminal NH2
B8: Example 61 (peptide)
peptide: B2 peptide with X6F, K16S, S21A, I27L
modifications: Aib2; αMeL13; K17((2-[2-(2-Amino-ethoxy)-ethoxy]-acetyl)2-(γ-Glu)-CO-(CH2)18-CO2H); Aib20; C-terminal NH2
B9: Example 125 (peptide)
peptide: B2 peptide with S21A
modifications: Aib2; αMeF6; αMeL13; K17((2-[2-(2-Amino-ethoxy)-ethoxy]-acetyl)2-(γ-Glu)2-CO-(CH2)18-CO2H); Aib20; C-terminal NH2
B10: Example 140 (peptide)
peptide: B2 peptide with S21D
modifications: Aib2; αMeF6; αMeL13; K17((2-[2-(2-Amino-ethoxy)-ethoxy]-acetyl)2-(γ-Glu)-CO-(CH2)18-CO2H); Aib20; C-terminal NH2
B11: Example 53 (peptide)
peptide: B2 peptide with Y1H, X6F, S21A
modifications: Aib2; αMeL13; K17((2-[2-(2-Amino-ethoxy)-ethoxy]-acetyl)2-(γ-Glu)-CO-(CH2)18-CO2H); Aib20; C-terminal NH2
B12: Example 69 (peptide)
peptide: B2 peptide with S21A
modifications: Aib2; αMeF6; αMeL13; K17((2-[2-(2-Amino-ethoxy)-ethoxy]-acetyl)2-(γ-Glu)-CO-(CH2)18-CO2H); Aib20; C-terminal NH2
B13: Example 118 (peptide)
peptide: B2 peptide with K16E, S21E
modifications: Aib2; αMeF(2F)6; αMeL13; K17((2-[2-(2-Amino-ethoxy)-ethoxy]-acetyl)2-(γ-Glu)-CO-(CH2)18-CO2H); Aib20; C-terminal NH2
B14: Example 142 (peptide)
peptide: B2 peptide with S21H
modifications: Aib2; αMeF6; αMeL13; K17((2-[2-(2-Amino-ethoxy)-ethoxy]-acetyl)2-(γ-Glu)-CO-(CH2)18-CO2H); Aib20; C-terminal NH2
B15: Example 149 (peptide)
peptide: B2 peptide with K16E, S21E, E24V
modifications: Aib2; αMeF(2F)6; αMeL13; K17((2-[2-(2-Amino-ethoxy)-ethoxy]-acetyl)2-(γ-Glu)-CO-(CH2)18-CO2H); Aib20; C-terminal NH2
B16: Example 66 (peptide)
peptide: B2 peptide with X6F, K16E, S21A, I27L
modifications: Aib2; αMeL13; K17((2-[2-(2-Amino-ethoxy)-ethoxy]-acetyl)2-(γ-Glu)-CO-(CH2)18-CO2H); Aib20; C-terminal NH2

The binders below were run against T1, human GIP receptor (human, UniProt P48546 22-466) (assay: SPA, [125I]-GIP displacement, hGIPR membranes).
T1 construct: whole, on cells; Used as crude membranes of stably transfected CHO cells; also called hGIPR
T1 sequence (looked up): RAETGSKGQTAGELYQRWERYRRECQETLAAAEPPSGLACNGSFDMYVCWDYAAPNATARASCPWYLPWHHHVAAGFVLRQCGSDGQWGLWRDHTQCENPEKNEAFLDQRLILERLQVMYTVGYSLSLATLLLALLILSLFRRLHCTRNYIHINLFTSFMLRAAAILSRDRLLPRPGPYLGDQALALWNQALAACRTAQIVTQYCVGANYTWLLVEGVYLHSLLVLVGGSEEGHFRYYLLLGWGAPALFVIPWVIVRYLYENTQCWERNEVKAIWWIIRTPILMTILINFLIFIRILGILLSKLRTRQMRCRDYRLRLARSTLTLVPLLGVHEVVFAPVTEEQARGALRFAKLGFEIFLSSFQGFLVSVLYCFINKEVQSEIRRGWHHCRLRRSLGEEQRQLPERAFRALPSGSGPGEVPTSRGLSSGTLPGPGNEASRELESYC

| Binder | Ki |
| --- | --- |
| B1 | 0.529 nM |
| B2 | 0.0295 nM |
| B3 | 0.0849 nM |
| B4 | 0.0625 nM |
| B5 | 0.0644 nM |
| B6 | 0.0925 nM |
| B7 | 0.0278 nM |
| B8 | 0.102 nM |
| B9 | 0.0624 nM |
| B10 | 0.0474 nM |
| B11 | 0.188 nM |
| B12 | 0.03 nM |
| B13 | 0.0859 nM |
| B14 | 0.0275 nM |
| B15 | 0.0708 nM |
| B16 | 0.106 nM |

Each binder was assayed against T2, human glucagon receptor (human, UniProt P47871 26-477) (assay: SPA, [125I]-Gcg displacement, hGcgR membranes).
T2 construct: whole, on cells; Used as crude membranes of stably transfected HEK293 cells; also called hGcgR; hGLcgR
T2 sequence (P47871 26-477): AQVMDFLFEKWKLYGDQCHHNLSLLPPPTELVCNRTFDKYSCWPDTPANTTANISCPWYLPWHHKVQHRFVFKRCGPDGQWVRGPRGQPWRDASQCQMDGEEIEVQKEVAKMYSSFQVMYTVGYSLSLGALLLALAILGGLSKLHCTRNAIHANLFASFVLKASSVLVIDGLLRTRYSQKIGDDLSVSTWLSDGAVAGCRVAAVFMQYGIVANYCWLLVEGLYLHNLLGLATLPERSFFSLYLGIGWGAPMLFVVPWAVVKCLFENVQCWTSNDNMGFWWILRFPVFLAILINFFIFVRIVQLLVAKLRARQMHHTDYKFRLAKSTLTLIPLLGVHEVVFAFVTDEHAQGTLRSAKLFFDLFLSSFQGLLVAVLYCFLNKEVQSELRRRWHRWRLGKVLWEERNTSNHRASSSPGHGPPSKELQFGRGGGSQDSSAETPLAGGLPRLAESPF

| Binder | Ki |
| --- | --- |
| B1 | 149 nM |
| B2 | 61.2 nM |
| B3 | 228 nM |
| B4 | 433 nM |
| B5 | 101 nM |
| B6 | 30.6 nM |
| B7 | 14.9 nM |
| B8 | 110 nM |
| B9 | 54.4 nM |
| B10 | 175 nM |
| B11 | 216 nM |
| B12 | 22.1 nM |
| B13 | 53 nM |
| B14 | 53.1 nM |
| B15 | 127 nM |
| B16 | 93.7 nM |

The binders below were run against T3, human GLP-1 receptor (human, UniProt P43220 24-463) (assay: SPA, [125I]-GLP-1 displacement, hGLP-1R membranes).
T3 construct: whole, on cells; Used as crude membranes of stably transfected HEK293 cells; also called hGLP1R; hGLP-1R

| Binder | Ki |
| --- | --- |
| B1 | 14.5 nM |
| B2 | 0.926 nM |
| B3 | 3.3 nM |
| B4 | 1.88 nM |
| B5 | 1.46 nM |
| B6 | 9.87 nM |
| B7 | 1 nM |
| B8 | 11.1 nM |
| B9 | 3.19 nM |
| B10 | 1.46 nM |
| B11 | 1.23 nM |
| B12 | 1.22 nM |
| B13 | 6.1 nM |
| B14 | 1.06 nM |
| B15 | 26.1 nM |
| B16 | 7.53 nM |

Source: patent US20200024322A1 (Eli Lilly, published 2020)
